Our source for the Frequency (fraction of sequenced phage) values is patent publication US20100316665A1.

In test [1] the target is T1, OmpF porin purified from Salmonella typhi (Salmonella enterica subsp. enterica serovar Typhi), Q56113.
T1 chain: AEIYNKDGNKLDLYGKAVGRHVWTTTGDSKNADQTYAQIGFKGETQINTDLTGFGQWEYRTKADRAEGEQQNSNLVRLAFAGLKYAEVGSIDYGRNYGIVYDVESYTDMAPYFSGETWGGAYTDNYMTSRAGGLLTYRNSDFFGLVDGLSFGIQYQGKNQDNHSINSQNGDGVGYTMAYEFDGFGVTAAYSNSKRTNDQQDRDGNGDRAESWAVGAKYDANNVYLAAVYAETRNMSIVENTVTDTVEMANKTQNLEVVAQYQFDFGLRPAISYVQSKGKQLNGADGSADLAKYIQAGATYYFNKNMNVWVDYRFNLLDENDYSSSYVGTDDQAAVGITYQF
Description: phage display panning on OmpF, frequency of occurrence among sequenced binders.

The target of test [2] is T2, OmpC porin purified from Salmonella typhi (Salmonella enterica subsp. enterica serovar Typhi), A0A0H3.
T2 chain: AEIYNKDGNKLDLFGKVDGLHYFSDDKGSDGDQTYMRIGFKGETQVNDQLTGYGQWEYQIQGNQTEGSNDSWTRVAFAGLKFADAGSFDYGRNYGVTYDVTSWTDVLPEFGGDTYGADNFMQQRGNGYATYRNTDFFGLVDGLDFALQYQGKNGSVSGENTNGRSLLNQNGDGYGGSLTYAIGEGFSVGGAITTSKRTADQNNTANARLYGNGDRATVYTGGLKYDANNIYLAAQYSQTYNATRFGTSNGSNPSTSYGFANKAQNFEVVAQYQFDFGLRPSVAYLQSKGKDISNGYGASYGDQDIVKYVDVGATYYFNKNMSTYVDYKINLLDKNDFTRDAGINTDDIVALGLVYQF
Description: phage display panning on OmpC, frequency of occurrence among sequenced binders.

As to FHEFWPT (modifications not checked) [affinity peptide FHEFWPT], the Frequency (fraction of sequenced phage) in test [1] was 0.4.
In test [2], SLSLIQT (modifications not checked) [affinity peptide SLSLIQT] gave a Frequency (fraction of sequenced phage) of 0.125.
The same measure, in the same setting: under EAKGLIR (modifications not checked) [affinity peptide EAKGLIR] stands 0.75.
Molecule FHENWPS (modifications not checked) [affinity peptide FHENWPS] registered a Frequency (fraction of sequenced phage) in test [1] of 0.6.
Regarding TATYLLD (modifications not checked) [affinity peptide TATYLLD], the Frequency (fraction of sequenced phage) in test [2] amounted to 0.125.
